± gives the uncertainty stated by the source.
Test: amyloid nucleation score (Sup35N fusion, yeast selection) (log enrichment); library NNK2; higher = more nucleation; inactive = no reads after selection
Outline: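 Output and input plasmid inserts were sequenced by Illumina after psi-negative yeast carrying Sup35N fused to peptides of 20 random codons had been induced 24 hours with 100 μM copper sulfate and grown 7 days at 30°C on medium lacking adenine and uracil. The nucleation score is the DiMSum log enrichment of output over input reads, centred on the mode score of non-aggregating sequences. Sequences with under 100 input reads were excluded.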

| Substance | amyloid nucleation score |
| --- | --- |
| KTCTLIGAMLIA | -0.385 ± 0.56 |
| RDLASSSS | -1.1 ± 0.41 |
| DHVLSFDSIVVWYLRIGGEE | -0.656 ± 1.1 |
| IRFKVMGFMFFVSW | 0.094 ± 0.65 |
| TNGCALRSLNWLIVS | -0.44 ± 0.31 |
| PPNRVNGNW | 0.853 ± 0.57 |
| SLKCDCYFSTGHI | inactive |
| HCGYEAIILWGVRFCGILQR | -0.357 ± 1.1 |
| ICKRIFGRYRYLSSEVDCVS | -1.54 ± 0.55 |
| NWLQDK | 1.61 ± 0.55 |
| AIMGHGLPYGTGLMEVGGAK | 5.13 ± 0.084 |
| FSLLD | -0.264 ± 0.45 |
| FGRGSRLLLCAGFPLLNSYA | -0.356 ± 1.1 |
| CGMISLSSNVMSFALPFLYY | 0.824 ± 0.15 |
| EWHVWVCIWGCGIEAWMLSW | 1.84 ± 0.16 |
| CWNACSLRLNDGAGDPGWRD | 0.36 ± 0.22 |
| SVSDLLLIYVIESSCSHGFK | 4.72 ± 0.072 |
| YRYPRCRVRLVS | -0.822 ± 0.35 |
| VRCSVCVGACEHGPVN | 1.27 ± 0.61 |
| VCYMLRNFCDVQHKK | 0.1 ± 0.63 |
| VYFAKRLFVLFIM | inactive |
| QLMDGSRSLFMALRRRFLLV | 0.691 ± 0.74 |

| Substance | amyloid nucleation score |
| --- | --- |
| DCSCFYFF | 2.96 ± 0.08 |
| LLRVDRCCWDN | -0.011 ± 0.54 |
| YVNVL | 0.479 ± 0.49 |
| IEFSDQVRCYLFCCRC | 8.977 ± 0.07 |
| VTIYGVLSRLNDCFFRGVWD | inactive |
| VDNIVHMWDRNWSPGRYMDR | -0.679 ± 0.44 |
| KYCSINCYRTASFQTFHLCW | 6.231 ± 0.036 |
| NFTSGGRRHNVERVGHLGLV | -0.168 ± 0.76 |
| LVVLD | -0.262 ± 0.79 |
| DSWFGRFYDEESSWCWAMVR | 0.039 ± 0.36 |
| FSYPGWFGFRS | inactive |
| LTSNTNSRMLRCSIMVQQS | -0.087 ± 0.45 |
| NRMRVMAWCAILNKELSGGK | 0.93 ± 0.51 |
| RMIPCLLRFGTYLFF | -0.509 ± 1.1 |
| LFAKDGLRSRLKEC | -0.033 ± 0.27 |
| RMYLVYNFLRLDLSARVVLA | inactive |
| PNWPR | 0.512 ± 0.66 |
| NWDSINFYRAVSYCDHIFYV | inactive |
| VLTVWPYHCAIVEILSGCVL | 5.98 ± 0.081 |
| YNSYVVRMGTI | -0.417 ± 1.1 |
| TRAHSED | 0.49 ± 0.32 |
| YLGTF | 0.187 ± 0.56 |

| Substance | amyloid nucleation score |
| --- | --- |
| TMCWPMILK | -0.072 ± 0.27 |
| RGSFYNGRS | 0.049 ± 0.76 |
| CIMCGALEIGFGIIRGWEDF | 9.421 ± 0.067 |
| FFTIVMRRSILFCIFLVIDA | -1.6 ± 0.49 |
| FYIIRD | -0.866 ± 0.76 |
| IQLMEFWLSGGLTVIMGILR | -0.971 ± 0.61 |
| IMCQVSR | -0.171 ± 1 |
| EMYFALLVLFVLGGFSM | -0.409 ± 0.76 |
| SPVVKFRLLQSINLTHCY | 4.47 ± 0.05 |
| SVVGRYEYIILGTRAPGTSR | 0.272 ± 0.5 |
| IRSFEFHNAWMCVYIWSKLY | -0.271 ± 1 |
| GGTDMATFNVPKNEVRDRRG | 1.4 ± 0.25 |
| CTRMRPPYLEHQSCDRLSSR | 0.241 ± 0.54 |
| INGVPNGYMATLGTTCVKKF | -1.11 ± 0.4 |
| YRINEDET | -1.55 ± 0.41 |
| MGCLTVVRNLEFNRVCGRGD | -0.669 ± 0.49 |
| WYERVWLAWSR | 0.66 ± 0.57 |
| HNCFFITRCSKVLRAYFSTL | -1.4 ± 1.1 |
| RDVFDMSSPTIAQCNVVRGM | -0.448 ± 0.32 |
| RSLSA | 1.02 ± 0.34 |
| YNYVPLDFVRPVSDWSLELR | -0.405 ± 0.39 |
| SILGVCSRLSYVRSVTFQGV | 0.998 ± 0.61 |

| Substance | amyloid nucleation score |
| --- | --- |
| VTVVWESDSFRYVYWLNRLE | 0.926 ± 0.48 |
| RLLSTCMILMMASRTCYVYN | 0.69 ± 0.52 |
| FSFSEHRL | 0.045 ± 0.79 |
| TICYV | -0.564 ± 0.35 |
| TVREKDYIEDFGVIWRKGIY | 0.791 ± 0.81 |
| WFGFGESAHLYRLREEDFHD | -0.206 ± 0.79 |
| FPFFLHLFNYLLVRCLTVGF | inactive |
| GYASTDEVMTLRMYLTSIYT | -0.187 ± 0.55 |
| WRLNEDHNRYDLIPGVRGLG | 0.519 ± 0.56 |
| VVYDHILVAKFRAFVLGPFL | 4.07 ± 0.054 |
| FMELLYHSASYSARFTRKSR | 2.69 ± 0.098 |
| YQLLLFV | -0.969 ± 0.41 |
| LGYRRSCEQGWGMLLGNYSH | inactive |
| SADRRQGITRFGTFNGGVRS | 0.481 ± 0.24 |
| TGRLPLFLQGLDEYPASNPE | -0.288 ± 1.1 |
| GVLNAVHCQVYWL | 7.869 ± 0.035 |
| GVLRENGN | 0.284 ± 1.1 |
| RYYLNL | 3.83 ± 0.091 |
| IFFVRACSKAGFVQPLSIFY | -0.113 ± 0.65 |
| LMGIEVDGYYGCRCLTP | 0.236 ± 1.1 |
| SYDVLCILRS | -0.547 ± 0.76 |
